According to the domain aggregation screens of Martell et al. (2025):

Test: soluble fraction after stress (log2 fold change); higher = more stays soluble; pooled small domains, quantitative proteomics
Settings: stress: 50 degC
Summary of the method: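 Custom libraries of small protein domains were pooled and measured in a high-throughput format, with quantitative proteomics as the read-out. Each library was stressed at 50°C. The value is the log2 fold change in the amount of each protein that stays soluble after stress, used as a measure of aggregation propensity; higher values mean more of the protein stays soluble.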

Sequence | soluble fraction (log2)
HMKKRDAEIMLQREFKLTEAIAMVRDRDIQELLPIALYFKVNINQPTAEIRYNLLNIAKSKTQEFIEAFD | -1.96
HMDRSVTAAELRLAAMDLLARREHGSQELEAKLSRRFHKRHYDVELLRSVIEQLTVEGLLSDERFAVS | -0.154
HMFTLDIGTIIRNRRLELNLTLEEIGNAVGVSKSTVQKWENGFISNMKRDKISALAKVLNINPVTLITGEY | -1.12
HMASISDRIRLLRAESHMTQEEFGRIFGISKPTVSFYEHGKSVPNDQIKTAIARYFGVSVDYLLGVTD | -1.89
HMGGEEINMINLVGLSQSEAENQLAKLKLKIGQVTAEYSDKPSGTVLKQSISANNKVKKGADIDIVVSKG | 0.126
HMVGNYYDILGVPETATQDAIKKAFRSLAQQHHPDKNPDDPGAEAMFKKVSEAYQVLSDPDKRQTYDASL | 0.00894
HMKMQPVISQGVLYINNVTDVRTIEVFDISGRIVADAAASTTVNIAHLNEGPYIVKVTTVNGIESIKILNK | -0.223
HMSSYMQMQLERLESLLQKNDLTDSDKYDIRQLVEDLDKVPESVSPNLVGAYMTIKNRYASVLKTVL | 0.501
HMSNNENSILEKLNSFSGKKIKVSHTIGSLAARLDEYPKIKMWLYKRIRENSINEQAYKYLIFIIERKVR | -1.2
HMGPLSDRSVADWLLRLGLADTANNRLLLQVMHAAGLPLERTAVRAMRETAAGRPEGTDAREWLQAAAAAQ | -0.208
HMSPAVEDYLEQIHNLIAQKGYARVVDIAGNLKISQASVTNMIQRMDADGLVVYERYRGVVLTETGRK | -1.3
HMSDPFSPTTTLKNRAKSVLSVDSFEDFKLFIKKMWQEKKEGVYQNPNVETWKDWDNISVKDAKILISLI | -0.474
HMAVQEDAGLAREDLPPEVQGLLQEREAARAAKDWGKSDALRRQLQDLGYAIKDTAQGMEIKRT | 0.425
HMTFNLDVDGDDQVTALGDGLMIIRKLFGATFAGDALTNKAISPDATRTTDEIHAYIEKGITSGVLD | -0.268
HMIDDPTAVILRLVSEKQVIRRDDVVKALSVTPQKAYRLLKTMTTGGLLTRSGARRTTVYGLPDARER | -0.0945
HMKSAYADVAIAKVQDYVNVRAENNEDSEVLGKLYNNSAATVLETTDDGWYKISSGSVTGYVKSEYVVVG | 0.0784
HMTKQMELLAQGAAKLSVDLNQRQLDQLQTYYRELVDWNQRMNLTAITQYEEVQVKHFLDSL | -0.0986
HMTSVPGTVVTNANLRGGPGTNYPIVGKAPAGTTVNVVESTADRTWYYLDTGSWIAAFLVKLS | 0.152
HMGETRWTYDDFGNILTEKAAPYSATEFLGKTYTYDTDNRYLKTVTDALGRTTTTLSYDKYGNPLSVMD | 0.101
HMKQPVPDEIYFKRLANATEALGRYPRASERKKFGLNMSKRRYPTLTDFINKAIELGYVEDFR | -0.373
HMKSVQIPQSITVKEFSQAIEVSVADVIKKLMSMGVMVSQNKEINVDTAILVGEEFGVTVNVA | 0.0996
HMTNVFSIIGKKALVIKDIDPIHSSGQIKLNGEVWSAETENDEIIKEGSEVEVLKINGVKAIVKLV | -0.107
HMWMEKEELLWNDIIRGGVERGELREDTDIQEAAALFRQVFIGLAYQMSFSDGLDVGILRKRFHHIYGLLT | 0.0187
HMNPMLEPAGEIRLSDGVLLRWQSERLPGDDTVRGPGSLYELGLYRVKVRVSAPQQGVRESSVELAGWRQV | -0.0771
HMEDTSTLSIKHKIKELINQESPQAILSDDKLVELLAAQGIKIARRTIAKYRETMNIPTSAERKRQKRPP | 0.479

Sequence | soluble fraction (log2)
HMEKPAQDVLASHREWMGEMIKAEHMTAKQVWRLLRERADIGVSYPTVKRYLRAHFQFGGPS | -1.28
HMRIYFSPSEIGFYHESDKQAYLLAGTWPNDLLEISEKWFLYLLEGQQKGKVITVNDYDQPVLVD | -3.31
HMIRMPNLIGLSVRSAEQQLVIAGLKKGIVHQVNDPRLKEVIDMQALGHKITAGSSIPKGTEVDLYIGNGT | 0.146
HMKKRDANSQGTRLILFYMLQRLHTEYKLQGFVTYNQRRSFREIYDAYHALGGNGFGTAMWEEVKELDLK | -1.43
HMDGTAKVAHMLVNELETFNRLKKHEIAYMLHIQPETLSRILNKLTRNGTIEIEKNSVVILNIQELKEIY | -1.55
HMGGNDALEIAKSNPQVIEVLGEPVTKDGMGSYSVNYKNGHKTSEATIPIEGPNGTATLHVKTSGSDDAL | 0.261
HMGYDDLEPFDANGRLRWSDQELVLAFGRHRGATLRTLELNDPSYLRWLLSGNGPLEQQDIQRLEQILES | -1.26
HMITNSTEIEAMIDSLIKENPEQAEQYRNGNTKVVGWFVGQMMKASKGKANPQVVGDLLAQKLVG | 0.0323
HMNIILFLDELHRLLSDLPPEERNQAIKYYEDYFEDAGPENEQAILKELGSPQELANQIKATT | -0.627
HMTNELTEIFNSIRLTKKQKELLQSNYLSLRETYFLQGKTAFNLKFKNIAGLGKSTKKVLLEFFEESIE | -1.83
HMLDEPPVSQTLTTYDREHMALYLRLLDSARDGADWREAVQILFGLDPTRDPLRSRHVHDTHLARARWM | -0.131
HMSDYKSYLQELVQTDKKSLSYNVVKETGPAHDKTFEVEVEVDGIIYAHGVGKSKKEAEQNAAKNAIMISA | 0.149
HMDANLGEIFKVYEQEIGALTPFVREEMLDAIDHYPRDWILDAIRESAKSNARNWKYTLAILKRWKAEG | -0.312
HMTKRTVKSVARKIADFNRERHRMPTYEEMLTLLAVRSKSVVHFWMNKLLQEGILEKDESGHLTFV | -0.124
HMNALREVNTSILNVRSGAGTNYSKIGSLTQATRVSVISESNGWSKINYNGKVGYVSSQYLS | -0.502
HMDQPLIEPLSERELEVLSLIAAGYSNAEIAERLVIAVGTVKRHINNLYGKLGAGSRTQALAIAREIGLM | 0.0589
HMNMTDVLVVNQTVRGGTQITESMLSVKKVDKSSLPDNYLKASLKDEVVGKYFDLGLTSGGVLTKDNISVS | 0.00597
HMKGILVPASSIISDGDKNYVWTVEKGKAKKVEVTLGNADAENQEISSGLTKDSKVITNPTDSLKDGQEV | 0.162
HMSGLGELTPRELEVLELMAQGLSNSQIAGRLFLSGAAVAKHVSSIFSKLGFEPGDENRRVRAILAFLNR | -0.422
HMNREMLVHAIGQLKEKYASALELKYWHGFTEREIAAFLNISEKAANSRLVRGRVMLRKLLE | 0.131
HMIPYSDLLKLLSNDAMPKFRNKDGWAKIHALETYLASRWSYQEYGFASFTVLLETVHNAEIRNDSVRLM | -0.343
HMDVALEALDESDGAVRLQFSGALQTYLNDSTTAASLEAISKTFRAFYEAAGRPVDTLEVYAAGEPVT | 0.06
HMSFDENEALRKALDVFWEKGYDGTSLSDLTEAMGINKPSLYATFGNKDQLFLKAIEMYENR | -0.992
HMGGKWSMPIIYILSKGKMRFKELERSVEGINTRMLVKELKNMEANGIVTREVFPTVPPTVEYALT | -0.922
HMTTQERVSYSAFINDVETGRVAKVVISGYTIEGTRTNNSSFVTERPYGVDSNLSEVLMQNSVSIEGKA | -0.129

Sequence | soluble fraction (log2)
HMKEAISIYPNPVKDILTIRGMDETSGVSFKLYDVTGNLLLESTHSELDMSGLNRGVYFLDIAGDVRKVVK | 0.0696
HMKKLPDDANDIIERVSSRLAQKFRFGYHTIDDMKQQAALFAWEGIYDSWDDSRPLENFLWIHVRNRLYN | -0.00948
HMGASVGEVESVKTASEIYTAAAGKIVAVNDAVAKDPSLVNSDPYGNGWLVKLEIADLSAINA | 0.000115
HMSDYLGSLSHEEKMIFNHFDEDSSTIENMAKKTELKPELISQIFLNLELRGFLRQTEGGLYEKI | -0.000348
HMSTMTEQEAFGLWERINDFIARTGNEPNRNSNDAHEVRMAEALNFIRIKVAEQRNSQSNSEAQNN | -0.0168
HMVEDIVLTDAQIEFVKQQAKNGLSAFQISEMIWPEMSVKRFSKQHVAVLDFLREYEPAYVHDSE | 0.00709
HMQARLPFSFAKRHGVILLAATGEGQSDVIYKSGFDIGALAEVRRFVAGEIALKEVDGPSFDRQLTLTYQN | -1.77
HMPPELSDEVMEEAMSYLKNQYLNHGVKLEDYPALNKLFVDEAFRSEVIRKTQSNYKISYQSAMASLD | 0.0219
HMGPYGAGSAAPAEDGSGPEGWTVKGNAKSMLYHTEGSPYYGRTNADVWFRDEESAEAAGFRRWDRK | 0.0581
HMSKPIYSELLREIRSGDVKELTLIPQRREVLVEYSDGRKATVSILANDQQVLRTAESAGVPLTVK | -0.0265
HMRIDVWLAENGFAPSRQKAQDLIAAGRVFQTDPSGRRQKVSKASAAVDPALSPKIEVIPDPE | 0.161
HMVDVNLLKYYVMESGKSLTDVAAAIGVTPATLHRKMSGESDFYRKEMQDIASYLGLDRDTIDRIFF | -1.01
HMIDAHTTLLAKRLESKGFLALTDKSSAEEIYEEFGISKKAFKKALGALYKERLVRIGEDGVVWM | -1.43
HMKNQQLFNIGDRFQVDGVAYRMEKLFPENGTVEVYNLGVGRHKTMSFEEILALWNSGKLLFEI | -0.185
HMPKTLTEAAYEDIKQWILEGEITPGSKISLEDTASRLEVSMTPIREALTKLQQEGLVEYIPRAGWRASK | 0.173
HMASALDVALNDFAEMRKKMRKPLTDRALALTLSELEKLAPGNDEKKIAILNQSIQRGWQGVFPLK | -0.162
HMSELDASYLGQRVRYVSGFTETDPSEGLVEFRGSNWRARAEHPPLDHSGHWVIVKVESNTLWVEEKSN | -0.22
HMNLEIGAIIKSLRAKHKYTQEQLSAFLGVTPQAVSRWEAGNGYPDIELLPAIARFFEVSTDELLGL | -0.428
HMTKGFSIQDISLSKSTMTFLQQNKITDLASLLSMSKSQIEGMKGFKPKMIQEIEKNLDKVGLVLAQD | 0.176
HMLINPLDILRNFNLSLYDDSRDSASNKEIDEIFESIKTNNSHIFSTLKAYRIPLPIASLIIKKIIKITLE | -0.534
HMFLPGETFDVKIVKIGEGENQGVGYLDDGTMIVIENGRDHLNELARVIVTRVLQNSAGQMIFSDYEE | -2.27
HMDDNRSLSDLAQQVFKRENIQVSRDTLSLLVSRLGSDRAVSRQEIEKLALFAGSNGKLTEEDIHNALG | 0.192
HMKNTIPVPHIIGLSEQEARETLERAGLQLNVIKTEPNTKYESGQVTDTNPNEGIKVPKGTIVNVVLADS | -0.00961
HMPFNREYWIEQLLKEVGLMGTPYAELDKHEVELDSPTGRASGFKVNAKTYVDQQLLFIENEYNNQPE | -0.153
HMVQISNTDDLYPIVQRIVDANPQSVEDYKNGKAKALGFLVGQMMKETKGKANPSMVNDLIIKAIEE | 0.123
